Like-named read-outs stand apart in the source and are kept apart here.
Experiments:
in vivo = conditions: female, SD, rat, iv, 5 mg/kg
ICR mice [1] = conditions: mouse, in vivo, iv
[2] = SD rats; for F: oral 50 mg/kg versus intravenous 10 mg/kg
ICR mice [3] = conditions: mouse, in vivo, iv; remark: listed apart in the source
ICR mice [4] = assay: Tail flick test (heat radiation pain tester); type: in vivo; conditions: tail vein, morphine 5 mg/kg, other doses as in the writhing test
rats = conditions: rat, in vivo
[5] = intravenous administration, 10 mg/kg

SMILES	level at 10 min (in vivo) [ng/mL]	level at 1 h (in vivo) [ng/mL]	level at 3 h (in vivo) [ng/mL]	tissue level at time at 10 min (in vivo) [ng/g]	tissue level at time at 1 h (in vivo) [ng/g]	tissue level at time at 3 h (in vivo) [ng/g]	AUCINF [2, 5] [ng·h/mL]	AUClast [2, 5] [ng·h/mL]	CL [2, 5] [mL/min/k g]	MRTINF [2, 5] [h]	T1/2 [2, 5] [h]	Vss [2, 5] [L/kg]	Vz [2, 5] [L/kg]	F [2] [%]	AUCINF ([2]; oral administration, 50 mg/kg) [ng·h/mL]	AUClast ([2]; oral administration, 50 mg/kg) [ng·h/mL]	Cmax ([2]; oral administration, 50 mg/kg)	T1/2 ([2]; oral administration, 50 mg/kg) [h]	Tmax ([2]; oral administration, 50 mg/kg) [h]	other results
CN1CC[C@]23c4c5ccc(O)c4O[C@H]2[C@@H](OCCOCCOCCOCCO[C@H]2C=C[C@H]4[C@H]6Cc7ccc(O)c8c7[C@@]4(CCN6C)[C@H]2O8)C=C[C@H]3[C@H]1C5 [α-6-O-PEG4-(morphine)2]	1120	114	42	226	198	164	137	122	238	6.12	4.71	64.3	94.3	17.1	81	70	47	6.4	3	Number of Writhing (ICR mice [1]; 10 mg/kg): 20.1±2.3
CN1CC[C@]23c4c5ccc(O)c4O[C@H]2[C@@H](OCCOCCOCCOCCOCCOCCOCCOCCO[C@H]2C=C[C@H]4[C@H]6Cc7ccc(O)c8c7[C@@]4(CCN6C)[C@H]2O8)C=C[C@H]3[C@H]1C5 [α-6-O-PEG8-(morphine)2]	1230	167	90	140	153	127	188	162	221	10.8	6.83	84.7	125.2	7.6	31	22	22	5.2	3	
CN1CC[C@]23c4c5ccc(O)c4O[C@H]2[C@@H](O)C=C[C@H]3[C@H]1C5 [Morphine, morphine]																				Number of Writhing (ICR mice [3]; 5 mg/kg): 10.2±2.1; Heat pain value (ICR mice [4]; 0 hr (base value before administration)): 14.0 ± 2.2 s; Heat pain value (ICR mice [4]; 0.25 hr after administration): 22.7 ± 5.1 s; Heat pain value (ICR mice [4]; 1hr after administration): 42.4 ± 5.1 s; Heat pain value (ICR mice [4]; 2 hr after administration): 29.0 ± 4.7 s; Heat pain value (ICR mice [4]; 6 hr after administration): 13.5 ± 1.2 s; Heat pain value (ICR mice [4]; 24 hr after administration): 13.8 ± 1.5 s; Nose-pokes (rats): 24.0±2.2
COc1ccc2c3c1O[C@H]1[C@@H](OCCOCCOCCOCCOCCOCCO[C@H]4C=C[C@H]5[C@H]6Cc7ccc(OC)c8c7[C@@]5(CCN6C)[C@H]4O8)C=C[C@H]4[C@@H](C2)N(C)CC[C@@]341 [α-6-O-PEG6-(codeine)2]	1740	445	67	102	100	97														Number of Writhing (ICR mice [1]; 30 mg/kg): 34.1±3.3
CN1CC[C@]23c4c5ccc(O)c4O[C@H]2[C@@H](OCCOCCOCCOCCOCCOCCOCCOCCOCCO[C@H]2C=C[C@H]4[C@H]6Cc7ccc(O)c8c7[C@@]4(CCN6C)[C@H]2O8)C=C[C@H]3[C@H]1C5 [α-6-O-PEG9-(morphine)2]	1230	201	101	152	125	123	259	221	166	7.91	8.33	60.1	92	5.2	17	11	11	11.5	3.0	
CN1CC[C@]23c4c5ccc(O)c4O[C@H]2[C@@H](OCCOCCO[C@H]2C=C[C@H]4[C@H]6Cc7ccc(O)c8c7[C@@]4(CCN6C)[C@H]2O8)C=C[C@H]3[C@H]1C5 [α-6-O-PEG2-(morphine)2]	1210	123	43	554	342	221	107	90	307	2.08	2.88	37.2	52.1	4.8	35	27	18	4.0	2	
CN1CC[C@]23c4c5ccc(O)c4O[C@H]2[C@@H](OCCOCCOCCOCCOCCOCCOCCO[C@H]2C=C[C@H]4[C@H]6Cc7ccc(O)c8c7[C@@]4(CCN6C)[C@H]2O8)C=C[C@H]3[C@H]1C5 [α-6-O-PEG7-(morphine)2]	1170	117	71	177	111	105														
COCCOCCOCCOCCOCCOCCO[C@H]1C=C[C@H]2[C@H]3Cc4ccc(O)c5c4[C@@]2(CCN3C)[C@H]1O5 [α-6-O-mPEG6-morphine, reference compound]																				Number of Writhing (ICR mice [1]; 10 mg/kg): 15.3±3.4
COc1ccc2c3c1O[C@H]1[C@@H](OCCOCCOCCOCCO[C@H]4C=C[C@H]5[C@H]6Cc7ccc(OC)c8c7[C@@]5(CCN6C)[C@H]4O8)C=C[C@H]4[C@@H](C2)N(C)CC[C@@]341 [α-6-O-PEG4-(codeine)2]	1660	233	43	121	110	107														Number of Writhing (ICR mice [1]; 30 mg/kg): 31.3±4.1
CN1CC[C@]23c4c5ccc(O)c4O[C@H]2[C@@H](OCCOCCOCCOCCOCCOCCO[C@H]2C=C[C@H]4[C@H]6Cc7ccc(O)c8c7[C@@]4(CCN6C)[C@H]2O8)C=C[C@H]3[C@H]1C5 [α-6-O-PEG6-(morphine)2]	1200	123	72	163	133	111	158	144	204	3.22	3.42	38.6	57.7	21.2	84	73	54	4.8	3	Number of Writhing (ICR mice [1]; 10 mg/kg): 24.3±3.4
CN1CC[C@]23c4c5ccc(O)c4O[C@H]2[C@@H](OCCOCCOCCOCCOCCO[C@H]2C=C[C@H]4[C@H]6Cc7ccc(O)c8c7[C@@]4(CCN6C)[C@H]2O8)C=C[C@H]3[C@H]1C5 [α-6-O-PEG5-(morphine)2]	926	101	51	125	123	95	128	109	261	3.52	3.71	55.2	84	28.2	156	129	75	7.8	2.0	
COc1ccc2c3c1O[C@H]1C(=O)CC[C@@]4(O)[C@@H](C2)N(C)CC[C@]314 [Oxycodone, oxycodone]																				Number of Writhing (ICR mice [3]; 5 mg/kg): 9.9±3.2
CN1CC[C@]23c4c5ccc(O)c4O[C@H]2[C@@H](OCCOCCOCCO[C@H]2C=C[C@H]4[C@H]6Cc7ccc(O)c8c7[C@@]4(CCN6C)[C@H]2O8)C=C[C@H]3[C@H]1C5 [α-6-O-PEG3-(morphine)2]	1020	119	32	387	262	167	112	104	296	2.18	2.31	27.8	43	3.2	18	15	12	5.1	2	
CN1CC[C@]23c4c5ccc(O)c4O[C@H]2[C@@H](OCCO[C@H]2C=C[C@H]4[C@H]6Cc7ccc(O)c8c7[C@@]4(CCN6C)[C@H]2O8)C=C[C@H]3[C@H]1C5 [α-6-O-PEG1-(morphine)2]	891	138	38	687	299	183	98	83	342	2.46	2.59	47.3	72	3.7	92	78	56	11	1.0	
COCCOCCOCCOCCO[C@H]1C=C[C@H]2[C@H]3Cc4ccc(O)c5c4[C@@]2(CCN3C)[C@H]1O5 [α-6-O-mPEG4-morphine, reference compound]																				Number of Writhing (ICR mice [1]; 10 mg/kg): 12.1±2.3
COc1ccc2c3c1O[C@H]1[C@@H](O)C=C[C@H]4[C@@H](C2)N(C)CC[C@@]341 [Codeine, codeine]																				Number of Writhing (ICR mice [3]; 30 mg/kg): 13.4±3.1

— patent publication EP3409295A1 (priority 2016, dated 2017)
